T1: Terbium (Tb) labeled-SNAP tagged ROBO2 expressed on HEK293 cells (Homo sapiens (Human), UniProt Q9HCK4 22-1378, terbium label on the SNAP tag)
T1 construct: also called Tb-labeled ROBO2 cells; ROBO2 expressing cells; not shown: SNAP tag
T1 sequence: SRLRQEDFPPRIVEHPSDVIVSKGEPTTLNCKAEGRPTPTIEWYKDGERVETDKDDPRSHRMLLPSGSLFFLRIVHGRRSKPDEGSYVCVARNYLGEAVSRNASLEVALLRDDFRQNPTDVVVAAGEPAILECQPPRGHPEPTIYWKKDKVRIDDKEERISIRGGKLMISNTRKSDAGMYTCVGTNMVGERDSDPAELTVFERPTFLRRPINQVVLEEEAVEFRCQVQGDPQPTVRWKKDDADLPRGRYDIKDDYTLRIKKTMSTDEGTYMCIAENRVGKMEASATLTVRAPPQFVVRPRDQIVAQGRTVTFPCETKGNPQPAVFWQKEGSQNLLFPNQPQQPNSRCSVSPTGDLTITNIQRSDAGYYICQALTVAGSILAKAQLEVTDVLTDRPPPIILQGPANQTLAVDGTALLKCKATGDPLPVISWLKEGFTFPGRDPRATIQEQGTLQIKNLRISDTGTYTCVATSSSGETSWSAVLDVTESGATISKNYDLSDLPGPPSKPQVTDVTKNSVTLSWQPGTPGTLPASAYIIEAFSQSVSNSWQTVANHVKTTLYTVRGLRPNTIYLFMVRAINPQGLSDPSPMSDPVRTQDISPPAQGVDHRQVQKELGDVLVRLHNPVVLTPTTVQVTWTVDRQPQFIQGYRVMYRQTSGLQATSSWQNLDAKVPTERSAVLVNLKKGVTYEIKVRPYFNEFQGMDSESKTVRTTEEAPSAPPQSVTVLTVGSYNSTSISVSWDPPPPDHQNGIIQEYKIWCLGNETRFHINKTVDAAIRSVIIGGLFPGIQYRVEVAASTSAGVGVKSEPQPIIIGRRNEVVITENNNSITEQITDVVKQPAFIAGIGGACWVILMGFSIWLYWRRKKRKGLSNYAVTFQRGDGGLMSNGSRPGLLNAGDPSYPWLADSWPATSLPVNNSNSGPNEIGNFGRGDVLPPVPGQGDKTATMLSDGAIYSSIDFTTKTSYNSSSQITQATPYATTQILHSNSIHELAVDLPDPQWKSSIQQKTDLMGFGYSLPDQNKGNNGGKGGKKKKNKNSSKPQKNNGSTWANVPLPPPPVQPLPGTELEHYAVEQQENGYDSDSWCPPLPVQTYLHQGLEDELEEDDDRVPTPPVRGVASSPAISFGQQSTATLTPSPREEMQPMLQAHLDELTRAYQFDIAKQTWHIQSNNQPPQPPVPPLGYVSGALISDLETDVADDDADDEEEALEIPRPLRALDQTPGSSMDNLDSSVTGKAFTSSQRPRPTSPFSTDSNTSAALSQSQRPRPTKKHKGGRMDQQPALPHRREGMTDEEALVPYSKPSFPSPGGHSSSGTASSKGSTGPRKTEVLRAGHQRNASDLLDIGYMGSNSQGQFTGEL

T2: Human ROBO2 overexpressed on HEK293 cells (human, UniProt Q9HCK4 22-1378)
T2 construct: also called ROBO2 cells; native ROBO2
T2 sequence: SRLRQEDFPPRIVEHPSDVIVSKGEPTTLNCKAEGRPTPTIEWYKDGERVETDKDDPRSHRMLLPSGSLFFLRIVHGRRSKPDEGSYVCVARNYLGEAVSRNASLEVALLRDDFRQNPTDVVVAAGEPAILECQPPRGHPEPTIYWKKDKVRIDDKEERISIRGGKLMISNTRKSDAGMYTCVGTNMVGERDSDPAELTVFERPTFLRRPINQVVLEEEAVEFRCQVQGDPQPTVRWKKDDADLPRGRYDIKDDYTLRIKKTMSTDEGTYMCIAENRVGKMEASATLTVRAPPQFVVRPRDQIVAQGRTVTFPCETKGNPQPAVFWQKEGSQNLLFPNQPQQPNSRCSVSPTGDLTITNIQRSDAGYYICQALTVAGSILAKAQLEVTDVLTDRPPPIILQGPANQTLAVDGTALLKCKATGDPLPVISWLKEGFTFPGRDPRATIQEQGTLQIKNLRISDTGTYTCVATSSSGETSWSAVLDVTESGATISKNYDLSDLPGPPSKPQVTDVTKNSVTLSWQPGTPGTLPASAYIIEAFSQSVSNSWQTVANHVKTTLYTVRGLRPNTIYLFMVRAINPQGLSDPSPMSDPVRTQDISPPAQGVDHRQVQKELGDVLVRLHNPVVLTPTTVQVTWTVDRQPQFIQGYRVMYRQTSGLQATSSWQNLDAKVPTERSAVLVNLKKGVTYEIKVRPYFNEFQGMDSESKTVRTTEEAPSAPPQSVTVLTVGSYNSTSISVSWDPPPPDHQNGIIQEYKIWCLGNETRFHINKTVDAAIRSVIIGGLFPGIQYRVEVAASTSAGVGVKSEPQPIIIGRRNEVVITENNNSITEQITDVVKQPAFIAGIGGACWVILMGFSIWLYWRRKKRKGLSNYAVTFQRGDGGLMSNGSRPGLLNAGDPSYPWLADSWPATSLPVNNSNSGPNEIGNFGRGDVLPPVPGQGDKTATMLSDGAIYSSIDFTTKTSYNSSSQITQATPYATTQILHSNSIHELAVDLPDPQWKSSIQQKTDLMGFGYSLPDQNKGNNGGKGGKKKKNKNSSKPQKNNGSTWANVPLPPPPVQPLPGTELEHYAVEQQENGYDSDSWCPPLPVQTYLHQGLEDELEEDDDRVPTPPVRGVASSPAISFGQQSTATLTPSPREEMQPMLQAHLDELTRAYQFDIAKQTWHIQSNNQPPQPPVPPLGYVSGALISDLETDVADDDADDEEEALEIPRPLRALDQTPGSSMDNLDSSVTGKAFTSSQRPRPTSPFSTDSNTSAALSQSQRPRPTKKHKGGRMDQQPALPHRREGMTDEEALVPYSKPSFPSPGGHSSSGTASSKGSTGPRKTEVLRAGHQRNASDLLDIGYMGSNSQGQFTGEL

T3: Human ROBO2 Ig1-Ig2-His (human, UniProt Q9HCK4 31-220)
T3 construct: the His tag is named only in the SPR paragraphs; the Octet and ELISA paragraphs print 'ROBO2 Ig1-Ig2' without a tag; also called ROBO2 Ig1-2; Human ROBO2 Ig 1,2
T3 sequence: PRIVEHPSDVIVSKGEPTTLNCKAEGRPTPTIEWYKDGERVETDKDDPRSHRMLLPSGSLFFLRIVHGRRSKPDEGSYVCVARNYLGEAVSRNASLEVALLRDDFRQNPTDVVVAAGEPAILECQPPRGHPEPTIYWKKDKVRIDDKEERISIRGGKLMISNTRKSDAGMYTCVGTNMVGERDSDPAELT


Legend:
[1] = target: T1, Terbium (Tb) labeled-SNAP tagged ROBO2 …; assay: HTRF, 5 nM d2-SLIT2-N on Tb-SNAP-ROBO2 HEK293 cells, 1 nM antibody
Procedure: (§1) In this assay, terbium (Tb) labeled-SNAP tagged ROBO2 expressing HEK293 cells were incubated with 5 nM d2-labeled SLIT-2N in the presence of 1 nM anti-ROBO2 antibodies for 1 hour. After incubation, fluorescence at 665 nm and 620 nm was measured on an Envision multilabel plate reader. […] Maximal signal was defined as the HTRF ratio of Tb-labeled ROBO2 cells with d2-labeled SLIT2-N in the absence of antibody, the minimum signal was defined as the HTRF ratio of Tb-labeled ROBO2 expressing HEK293 cells only. One nanomolar (nM) parental antibody, 93H2, was unable to block the HTRF assay, therefore this concentration was selected to identify clones with a higher affinity than 93H2 (Table 2, HTRF Ratio column). […] Antibodies derived from chain (Abcs series) or CDR shuffling (CTIR-2 series) were evaluated in 11-point, 5-fold dilution series with a top concentration of 1500 nM (Table 2 HTRF IC₅₀).
(§2) HTRF assays were run with 5 nM d2-labeled SLIT2-N and antibodies were added at 1 nM. […] Antibodies derived from chain (Abcs series) or CDR shuffling (CTIR-2 series) were evaluated in 11-point, 5-fold dilution series with a top concentration of 1500 nM, N.T. = not tested; ^cFold selectivity was calculated as Geometric Mean Fluorescent Intensity (Geo MFI) of ROBO2/Geo MFI of ROBO1 binding.

[2] = target: T2, Human ROBO2 overexpressed on HEK293 …; assay: flow cytometry on HEK293 cells overexpressing human ROBO2; N.B. = No binding to ROBO2
Procedure: The parental 93H2 antibody was highly ROBO2 specific, therefore affinity matured antibodies with single point neutralizing activity were screened by flow cytometry to ensure ROBO2 selectivity had been maintained. […] Binding of the antibodies was detected using a secondary fluorochrome conjugated anti-human IgG F(ab′)₂ antibody and samples were analyzed on a Fortessa cytometer (BD Biosciences). The fold ROBO2 selectivity was calculated as the geometric mean fluorescence intensity (Geo MFI) with ROBO2 cells/Geo MFI with ROBO1 cells. A fold change higher than 3 was considered to be ROBO2 specific (Table 2, Fold Selectivity). Some affinity matured clones had increased ROBO1 reactivity, for example Abcs 55, CTI-R2-10 and CTIR2-13.
Table 2 is a summary of assays used to screen antibodies against ROBO1 and/or ROBO2 to identify an antibody that specifically recognized ROBO2 but not ROBO1 with high affinity. […] Full dose curves were performed in the same assay for select antibodies. Recognition of native, surface expressed protein and ROBO2 selectivity was evaluated by flow cytometry. […] Anything with a value of greater than 3 was deemed to be selective for ROBO2. Outcomes of the various screening assays conducted for each antibody are highlighted in the final column.

Human ROBO2 Ig1-Ig2-His = target: T3, Human ROBO2 Ig1-Ig2-His; assay: Octet (BLI), relative Kd
[3] = target: T1, Terbium (Tb) labeled-SNAP tagged ROBO2 …; assay: HTRF competition, competitor d2-SLIT2-N, ROBO2 HEK293 cells
Procedure: as §1, with “Antibodies generated as a result of the affinity maturation campaign were screened by numerous assays for neutralization of SLIT2-N binding, selective binding to ROBO2 over ROBO1, and inhibition of SLIT2-N functional activity (see Table 2). A ROBO2-SLIT2-N homogenous time resolved fluorescence (HTRF) assay was used to identify antibodies that were capable of blocking SLIT2-N binding to ROBO2. In” for “In”

[4] = target: T2, Human ROBO2 overexpressed on HEK293 …; assay: flow cytometry, Geo MFI ROBO2/ROBO1 HEK293 cells, 0.1 µg/ml
Procedure: Binding of the antibodies was detected using a secondary fluorochrome conjugated anti-human IgG F(ab′)₂ antibody and samples were analyzed on a Fortessa cytometer (BD Biosciences). The fold ROBO2 selectivity was calculated as the geometric mean fluorescence intensity (Geo MFI) with ROBO2 cells/Geo MFI with ROBO1 cells. A fold change higher than 3 was considered to be ROBO2 specific (Table 2, Fold Selectivity). Some affinity matured clones had increased ROBO1 reactivity, for example Abcs 55, CTI-R2-10 and CTIR2-13.
as §2, with “binding. […] Outcomes: results are listed in order of assays listed in the table (left to right), I.A. = Improved Affinity” for “binding.”

Binder | HTRF Ratio [1] | binding result [2] | Kd (Human ROBO2 Ig1-Ig2-His) [nM] | IC50 [3] [nM] | Fold Selectivity for ROBO2/ROBO1 [4] [fold]
Ab17 (antibody, human IgG1, kappa, V domains shown, full-length human IgG) VH: EVQLVQSGAEVKKPGASVKVSCKASGYTFTGYDMHWVRQAPGQGLEWMGWINPNSGATNFPQKFQGRVTMTRDTSITTAYMDLSRLRSDDTAVYYCARESGDDAFDIWGQGTMVTVSS VL: DIVMTQSPSSLSASVGDRVTITCRASQSISSYLNWYQQKPGKAPKLLIYAASSLQEGVPSRFSGSGSGTDFTLTISSLQPEDFATYYCQQSYSTSFGGGTKVEIKR | 13500 | no binding (tested: 0.1 µg/ml) | – | – | –
Ab21 (antibody, human IgG1, kappa, V domains shown, full-length human IgG) VH: EVQLVQSGAEVKKPGASVKVSCKASGYTFTGYDMHWVRQAPGQGLEWMGWINPNSGATNFPQKFQGRVTMTRDTSITTAYMDLSRLRSDDTAVYYCARESGDDAFDIWGQGTMVTVSS VL: DIVMTQSPSSLSASVGDRVTITCRASQSISSYLNWYQQKPGKAPKLLIYAASSLQYGVPSRFSGSGSGTDFTLTISSLQPEDFATYYCQQSYSTSFGGGTKVEIKR | 13100 | no binding (tested: 0.1 µg/ml) | – | – | –
Ab96 (antibody, human IgG1, kappa, V domains shown, full-length human IgG) VH: EVQLVQSGAEVKKPGASVKVSCKASGYTFTGYYMHWVRQAPGQGLEWMGWINPKNGDTEFPQKFQGRVTMTRDTSITTAYMDLSRLRSDDTAVYYCARESGDDAFDIWGQGTMVTVSS VL: not shown | 3680 | – | 1.2 | 0.166 | 35
Ab112 (antibody, human IgG1, kappa, V domains shown, full-length human IgG) VH: EVQLVQSGAEVKKPGASVKVSCKASGYTFTGYYMHWVRQAPGQGLEWMGWINPNSGATNFPQKFQGRVTMTRDTSITTAYMDLSRLRSDDTAVYYCARESGDDAFDIWGQGTMVTVSS VL: DIVMTQSPSSLSASVGDRVTITCRASQSISSYLNWYQQKPGKAPKLLIYAASSLQSGVPSRFSGSGSGTDFTLTISSLQPEDFATYYCQQSVGLSFGGGTKVEIKR | 7300 | – | – | 0.174 | 39.2

Reference: US20200157212A1 (Pfizer, published 2020)
